# B1: LINE1-full (parent)
# chain: UACGUAGGUGGUUUUCCCCUGAUAGUGCUAAGGGGGCCUGGAAGUUUGGACUGGGCAGAGCUCAACACAGCGUGGCAAAGUGGCUGUGGCUAGACUGCCUCUCUGGAUUCCUCGUCACUCAGCAGGGCAUCUCUGAGAGAAAUGCC
# Variants of: B1
# Assay: self-cleavage, relative activity (ratio to wild type); higher = more cleavage; in vitro, sequencing; the parent is a self-cleaving ribozyme
row,Variant,self-cleavage
1,G89A A94G,0.07
2,G8C A138G,1.44
3,A64C U130C,0
4,U62C U85C,0.05
5,A22U A129U,1.47
6,A6G C111U,1
7,U13A A142G,1.2
8,C99U C145U,0.82
9,U5A U100A,0.51
10,G72U A94G,0.46
11,U112A U119A,0
12,U29C A77C,0.85
13,A31G A79G,1.23
14,U14A A24G,0.96
15,G4U C110A,1.56
16,U39A G135U,1.99
17,G34A U87G,0.2
18,A22G G33A,0.65
19,A69G C133A,0.47
20,G21A G114A,2.07
21,U9G A79G,0.63
22,A2G A77G,1.36
23,A42G C51U,1.28
24,G70A U85G,0.01

row,Variant,self-cleavage
1,G53U A141G,1.58
2,U46A A69U,0.05
3,A6G U134A,0.52
4,G74C U132A,1.46
5,A22U C38A,0.64
6,G44A U91C,0.65
7,G33U A138G,1.68
8,A22G A92U,0.79
9,G83U A142G,0.44
10,U14A U109C,1.05
11,A94U U104A,0.19
12,A42U U119C,1.73
13,U109G A124G,1.04
14,A79G C113U,0.75
15,G7U,1.35
16,A94G U115A,0.34
17,A117U A124C,1.77
18,U13C U47C,1.56
19,G35A A57U,0.05
20,C3U U102A,1.1
21,U96A G122C,0.07
22,U81C U102A,1.05
23,U100A A129U,1.25
24,A67U G74A,0.08

row,Variant,self-cleavage
1,U109C U130C,1.49
2,U29C U45G,0.79
3,U9A U143A,1.34
4,A64U U109G,0.23
5,C113U A140G,0.69
6,U62C A138G,0.06
7,U13G A121G,1.1
8,U14A U102A,0.99
9,U73C C145U,1.53
10,A6G A77U,0.92
11,U62A C133U,0.04
12,U81C U104A,1.07
13,G8A U62G,0
14,U15G U115C,0.84
15,G114A G125U,1.49
16,G72A A121U,1.52
17,A69G U112G,1.15
18,U47A A69G,0.52
19,A59C U134A,1.46
20,G21U C131U,1.41
21,G4C U115A,1.51
22,A30G U112C,0.96
23,A57G U91A,0.34
24,U12C G27A,0.87

row,Variant,self-cleavage
1,C63G,0.09
2,G60A A138U,0.05
3,A30U C56A,0.09
4,U143C C145U,1.06
5,C95A C146U,0.08
6,C113A U115C,1.5
7,U5C A57U,0.29
8,U39C A79G,1.21
9,G126A U143A,1.49
10,A117U G135A,1.79
11,U23A U47A,1.91
12,U104C U119A,2.16
13,A24G U62C,0.14
14,A138U A141G,1.17
15,C19U A50G,0.77
16,A50U A79C,1.3
17,U29C U112C,1.07
18,U14G U85C,0.92
19,U112A A136G,1.71
20,C68U C123G,0.1
21,U47C A77U,1.2
22,U45C U115A,1.49
23,G8U C37U,1.51
24,U132C,1.35

row,Variant,self-cleavage
1,A2G U134A,1.38
2,A67U A77U,0.04
3,U81C,1.37
4,U108A A138G,1.79
5,U29C A78G,1.17
6,A65G A140C,0.13
7,G72U A77G,2.19
8,A22C A129G,1.39
9,A69G G72A,0.54
10,U119C G125U,2.39
11,U45C U108C,2.11
12,G74A U87C,0.08
13,U15A U85C,0.03
14,U13C A64U,0.44
15,A24G U73C,1.68
16,U14C U87C,0.26
17,C118U U134C,1.13
18,A67G A140U,0.56
19,G126A A140U,1.67
20,G11A C28G,1.12
21,U1A U119C,1.73
22,A67U U109A,0.11
23,U14A U39C,0.95
24,U47C U62C,0.12

row,Variant,self-cleavage
1,A124C A142G,0.53
2,C16U C131U,1.8
3,A22U U132C,1.6
4,U73C U87C,0.2
5,G27A C98A,0.14
6,U81C A142C,1.18
7,A78C U96A,0.14
8,G55U A59G,0.05
9,U5C G36C,1.25
10,G125A G144A,1.33
11,C66U A138U,0.03
12,U47A C56U,0.14
13,A69C,0.07
14,G40U U132C,2.4
15,U23A A24G,0.85
16,G55U G144A,0.43
17,A2U U85G,0.14
18,U13C A69U,0.1
19,U14A A142G,0.85
20,A67U U87C,0.21
21,U20C C133U,1.16
22,G75A U100A,0.42
23,U52C A64G,0.34
24,G70U A79G,0.03

row,Variant,self-cleavage
1,G122A A140G,0.53
2,U9G U134C,0.71
3,U9A G105A,1.35
4,G4A A136U,1.51
5,C37G U115C,1.44
6,A69C A77U,0.09
7,U12C U29C,1.44
8,A50U G86A,0.06
9,C19U U20C,0.93
10,U96C A138U,0.1
11,A107U U134G,1.9
12,C3A U13C,1.15
13,G127A U143C,2.07
14,A22U C99U,0.51
15,C111U,1.38
16,U132C A140U,1.43
17,G89U U109A,0.02
18,A30U A141G,0.87
19,U96A G139C,0.04
20,U100A U108G,0
21,G75A G82U,1.07
22,G4C A140G,1.19
23,G40A A141G,1.06

# Reference: the RNAGym collection of RNA variant scans (doi:10.7554/elife.90254)
